According to patent US10874712B2, “Methods, compounds and compositions for modulating blood brain barrier integrity and re-myelination” (University Health Network, priority 2015, dated 2020):
“Also recorded” adds a separate entry of the source.

Columns and labels:
[1] = test system: MOG(35-55)-pulsed splenocytes of EAE-induced mice; assay: MOG-specific cytokine expression, secretion and proliferation of splenocytes; type: in vivo, mouse
Experimental: Mice were sacrificed on day 10 post-induction and single cells suspension of splenocytes were harvested as described above. Cells (1×10^6) were cultured in 10% FBS RPMI-1640 in the presence of 0 μg/mL, 30 μg/mL, or 100 μg/mL of MOG peptide for 15 h. Cells were then treated with GolgiStop (BD Biosciences) and incubated an additional 3 h and were subsequently stained.
Plates were centrifuged at 1800 rpm for 5 min and the media was then harvested and stored at −80 C until analysis. Cytokine secretion of IL-17a, IL-6, TNF-α, and IFN-γ were assessed using the BD cytometric Bead Array (CBA) (BD Biosciences) according to the manufacturer's guidelines. Splenocyte proliferation was determined using CellTrace™ CFSE Cell Proliferation Kit for flow cytometry (Life Technologies) according to manufacturer's instructions. Briefly, 1×10^6 cells were suspended in warm PBS/0.1% BSA and stained with CFSE solution at a final concentration of 5 μM and incubated at 37° C. for 10 min. The staining was quenched using 5 volumes of ice-cold culture media, incubated for 5 min on ice, centrifuged at 700 rcf for 5 min, washed twice using culture medium, and re-suspended in 10% FBS complete RPMI-1640. Cells were then cultured in 0 μg/mL or 30 μg/mL of MOG(35-55) peptide for 72 h at 37° C., 5% CO2. […] Proliferation was analyzed by flow cytometry following staining in the presence of PI.

[2] = test system: blood brain barrier of mice; assay: BBB permeability, Texas red dye leakage by widefield imaging; type: in vivo, mouse; conditions: mice injected with RGMa plus the agent
Experimental: Mice were treated with RGMa (70 ug), RGMa (70 ug)+RGMc (70 ug), or Vehicle (1% BSA) 18 h prior to widefield imaging (100-300 ms exposure) prior to and following intravenous injection of Texas Red dye (0.5 mg) over time. […] (B) Quantification of the leakage of Texas Red dye (measured as the number of leakage sites/mm^2).
BBB integrity was assessed in mice treated with PBS (Vehicle), RGMa, RGMc, RGMa+ immunoglobulin domain of Neogenin (4Ig). Widefield imaging was then carried out under a Olympus microscope (BX6 1WI) prior to and following the injection of Texas red dye (100 uL, I.V., 5 mg/ml) using 100-300 ms exposure. Recording was performed from 0 min to 35 min following injection. Texas dye leakage was also assessed in RGMc knockout (KO) and wild type (WT) mice. The leakage of Texas-red dye was quantified by a blind experimenter measuring the number of leakage sites/mm^2. (A) Representative images of Texas red dye: PBS (Vehicle), RGMa, RGMa+RGMc and RGMa+4Ig (immunoglobulin domain of Neogenin). Quantification of the leakage of Texas Red dye in animals treated with (B) PBS (Vehicle), RGMa or RGMa+RGMc or in RGMc KO and WT mice or (C) PBS (Vehicle), RGMa, RGMa+RGMc or RGMa+4Ig.
Mice injected with BSA, RGMc, RGMa, or RGMa+RGMc. […] Leakage of Texas red dye was quantified by a blind experimenter measuring the number of leakage sites/mm^2. […]

b.end3 cells = assay: In vitro BBB permeability, Dextran-FITC extravasation in Boyden chamber; type: cell-based, mouse; conditions: b.end3 monolayer; 4 h pre-treatment (10 μg/mL sRGMc, 10 μg/mL C3 Transferase or 10 μM Y27632), then RGMa 18 h
Experimental: (A) Neogenin expression was analyzed on the membrane of b.end3 cells using immunohistochemical staining and by Western blot. (B) Crystal violet staining showing the b.end3 cell monolayer, (C) Representative diagram of the boyden chamber set up and (D) BBB permeability in b.end3 cells. Serum-starved cells were incubated for 4 h with RGMa (10 μg/ml), C3 Transferase (10 μg/mL) or Y27632 (10 μM) or sRGMc (10 μg/mL) and were then incubated with sRGMa (5 μg/mL) for 18 h followed by seeding of Dextran-FITC onto the upper chamber. Extravasation was measured over a period of 60 min as described in the Examples. n=3, performed in triplicates.
b.End3 endothelial cells were used to generate an in vitro model of the human EC barrier lining the choroid plexus. Briefly, b.end3 cells were plated on polyethylene-coated 0.4 μm pore size Boyden chambers (Corning) at a density of 2×10^5 cells per well in DMEM, and were allowed to grow for 72 h to reach confluency (verified using crystal violet staining). After 72 h, cells were serum starved for 6 h and pre-treated for 4 h with 10 μg/mL sRGMc, 10 μg/mL C3 Transferase or 10 μM Y27632. RGMa was then added to the wells for 18 h. The transwells were then transferred to a new plate containing 500 μl of HBSS and 200 μl 4-KDa Dextran-FITC (25 mg/ml; Sigma-Aldrich) was added to the upper chambers. Tracer diffusion across the EC monolayer was assessed in 30 min intervals for a period of 1.5 h. FITC signal, which represented the amount of extravasation through the monolayer was analyzed with using a microplate reader.

rats subjected to MCAO = assay: Middle Cerebral Artery Occlusion (MCAO), Evans Blue BBB integrity; type: in vivo, rat; conditions: daily tail vein injection of 70 μg, seven days following MCAO
Experimental: The possibility that RGMc may also restore BBB integrity following stroke was also tested. Middle Cerebral Artery Occlusion (MCAO) was performed in rats, which were treated with a daily tail vein injection of 70 μg of RGMc or PBS (control). Seven days following MCAO, animals received injection of Evans blue to monitor BBB integrity (FIG. 24). To measure BBB integrity, the amount of Evans Blue Dye/g of brain tissue was measured. […] This effect was also quantitated: brains were homogenized and the amount of Evans Blue quantified per gram of wet brain (FIG. 24, B).

B1: sRGMc: truncated form of RGMc with the GPI anchor sequence removed, released as a soluble protein (SEQ ID NOs: 1 and 3) (protein, listed as Homo sapiens)
chain: CKILRCNAEYVSSTLSLRGGGSSGALRGGGGGGRGGGVGSGGLCRALRSYALCTRRTARTCRGDLAFHSAVHGIEDLMIQHNCSRQGPTAPPPPRGPALPGAGSGLPAPDPCDYEGRFSRLHGRPPGFLHCASFGDPHVRSFHHHFHTCRVQGAWPLLDNDFLFVQATSSPMALGANATATRKLTIIFKNMQECIDQKVYQAEVDNLPVAFEDGSINGGDRPGGSSLSIQTANPGNHVEIQAAYIGTTIIIRQTAGQLSFSIKVAEDVAMAFSAEQDLQLCVGGCPPSQRLSRSERNRRGAITIDTARRLCKEGLPVEDAYFHSCVFDVLISGDPNFTVAAQAALEDARAFLPDLEKLH
Question: Which results are given for B1?
Answer: cytokine secretion (IL17, IFN-γ, TNFα, IL6) of MOG-pulsed splenocytes ([1]; pulsed with MOG for 96 h, ELISA, vs vehicle): does not alter; cytokine profile of splenocytes re-stimulated with MOG(35-55) ([1]; re-stimulated for 18 hrs, vs control mice): no apparent effect; RGMa-induced disruption of BBB integrity (Texas Red dye leakage) [2]: suppressed; also recorded: ameliorated; extravasation of Dextran-FITC in sRGMa-treated cells (b.end3 cells): reproduced the RhoA/RhoK inhibitor effect; reduction in Evans Blue levels in the brain compared to PBS-treated animals (rats subjected to MCAO): 3 fold; Evans Blue extravasation into the CNS, visual inspection (rats subjected to MCAO; vs control): strongly reduced
